T1: cynomolgus monkey Siglec15-his protein (cynomolgus monkey)
T1 construct: In house made; also called Cynomolgus Siglec15-his; cynomolgus Siglec15
T1 chain: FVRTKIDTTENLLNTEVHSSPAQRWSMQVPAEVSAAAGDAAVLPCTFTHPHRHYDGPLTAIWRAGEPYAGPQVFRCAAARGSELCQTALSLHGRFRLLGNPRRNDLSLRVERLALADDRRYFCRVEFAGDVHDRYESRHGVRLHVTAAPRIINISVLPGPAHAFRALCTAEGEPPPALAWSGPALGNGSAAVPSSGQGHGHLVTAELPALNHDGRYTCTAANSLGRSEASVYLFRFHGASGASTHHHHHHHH

T2: recombinant human Siglec15-his protein (human, UniProt Q6ZMC9 20-263)
T2 construct: In house made; Biotin-labeled in the capture ELISA
T2 sequence: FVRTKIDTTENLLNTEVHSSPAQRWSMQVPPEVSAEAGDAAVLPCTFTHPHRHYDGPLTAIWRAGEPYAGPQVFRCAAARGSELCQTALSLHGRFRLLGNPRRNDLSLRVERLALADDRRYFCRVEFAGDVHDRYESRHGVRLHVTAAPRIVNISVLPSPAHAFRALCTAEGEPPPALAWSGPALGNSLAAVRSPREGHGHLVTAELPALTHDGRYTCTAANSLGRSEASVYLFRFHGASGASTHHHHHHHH

T3: human Siglec15 on human-siglec15-2D3-1E1 cells (human, UniProt Q6ZMC9 20-328)
T3 construct: whole, on cells; Transfected HEK-293 cells; also called cell surface human Siglec15
T3 sequence (looked up): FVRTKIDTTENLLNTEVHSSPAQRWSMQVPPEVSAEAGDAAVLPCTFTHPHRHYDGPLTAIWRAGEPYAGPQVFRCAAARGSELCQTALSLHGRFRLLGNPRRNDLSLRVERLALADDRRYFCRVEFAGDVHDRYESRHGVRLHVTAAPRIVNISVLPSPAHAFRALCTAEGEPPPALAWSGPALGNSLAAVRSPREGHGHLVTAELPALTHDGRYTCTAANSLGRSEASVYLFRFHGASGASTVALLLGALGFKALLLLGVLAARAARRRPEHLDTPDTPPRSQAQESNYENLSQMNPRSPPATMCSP


Tests used:
[1] = target: T1, cynomolgus monkey Siglec15-his protein; experiment: indirect ELISA on coated cynomolgus Siglec15-his
Description: The anti-Siglec15 antibodies' cross-reactions to cynomolgus or mouse Siglec15 proteins were measured. Briefly, 96-well micro plates were coated with 100 μl of 2 μg/ml cynomolgus Siglec15-his protein (in house made with SEQ ID NO: 21), or 2 μg/ml mouse Siglec15-his protein (in house made with SEQ ID NO: 22) in carbonate/bicarbonate buffer (pH 9.6) for 2 hours at 37° C. ELISA plates were washed once with wash buffer (PBS+0.05% v/v Tween-20, PBST) and then blocked with 200 μl/well blocking buffer (5% w/v non-fatty milk in PBST) overnight at 4° C. Plates were washed 4 times and incubated with 100 μl serially diluted anti-Siglec15 antibodies of the disclosure or controls (starting at 66.7 nM, 5-fold serial dilution in PBST with 2.5% w/v non-fatty milk) for 40 minutes at 37° C. ELISA plates were washed 4 times again and incubated with Peroxidase AffiniPure Goat Anti-Human IgG, F(ab)₂ fragment specific (1:5000 dilution in PBST buffer, Jackson Immunoresearch, Cat #109-035-097, 100 μl/well) for 40 minutes at 37° C. After a final wash, plates were incubated with 100 μl/well TMB (Innoreagents, Cat #TMB-S-002). The reaction was stopped 4 minutes later at room temperature with 50 μl 1M H₂SO₄, and the absorbance of each well was read on a microplate reader using dual wavelength mode with 450 nm for TMB and 630 nm as the reference wavelength, then the OD (450-630) values were plotted against antibody concentration. Data was analyzed using Graphpad Prism software and EC₅₀ values were reported.

[2] = target: T2, recombinant human Siglec15-his protein; experiment: capture ELISA, captured antibody, biotin-labeled human Siglec15-his in solution
Description: Briefly, 96-well plates were coated with 100 μl of 2 μg/ml AffiniPure Goat Anti-Human IgG F(ab′)₂ fragment specific (Jackson Immuno Research, Cat #109-005-097) in PBS for 2 hours at 37° C. Plates were washed once with wash buffer (PBS+0.05% v/v Tween-20, PBST) and then blocked with 200 μl blocking buffer (5% w/v non-fatty milk in PBST) overnight at 4° C. Plates were washed 4 times and respectively incubated with 100 μl serially diluted anti-Siglec15 antibodies of the disclosure, the benchmark and hIgG (human immunoglobulin (pH4) for intravenous injection, Hualan Biological Engineering Inc.), 5-fold dilution in 2.5% w/v non-fatty milk in PBST starting at 66.7 nM, for 40 minutes at 37° C., and then washed 4 times again. Plates containing captured antibodies were incubated with 100 μl biotin-labeled human Siglec15-his protein (in house made with SEQ ID NO: 20, 145 ng/ml in 2.5% w/v non-fatty milk in PBST) for 40 minutes at 37° C., washed 4 times, and incubated with streptavidin conjugated HRP (1:10000 dilution in PBST, Jackson Immuno Research, Cat #016-030-084, 100 μl/well) for 40 minutes at 37° C. After a final wash, plates were incubated with 100 μl/well ELISA substrate TMB (Innoreagents, Cat #TMB-S-002). The reaction was stopped in 4 minutes at room temperature with 50 μl/well 1M H₂SO₄, and the absorbance of each well was read on a microplate reader using dual wavelength mode with 450 nm for TMB and 630 nm as the reference wavelength, then the OD (450-630) values were plotted against antibody concentration. Data was analyzed using Graphpad Prism software and EC₅₀ values were reported.

[3] = target: T3, human Siglec15 on …; experiment: cell based binding FACS on human-siglec15-2D3-1E1 cells
Description: The binding activities of the anti-Siglec15 antibodies to cell surface Siglec15 were tested by flow cytometry (FACS), using in-house prepared human-siglec15-2D3-1E1 cells expressing human Siglec15 (amino acid residues Met1-Pro328 of uniprot #Q6ZMC9) on cell membranes. The human-siglec15-2D3-1E1 cells were prepared by transfecting HEK-293 cells (ATCC #CRL-1573) with pCMV-T-P plasmids inserted with human Siglec15 coding sequence between EcoRI and XbaI sites, following the instruction of lipofectamine 3000 transfection reagent (Thermo Fisher). The human-siglec15-2D3-1E1 cells were harvested from cell culture flasks, washed twice and re-suspended in phosphate buffered saline (PBS) containing 2% v/v Fetal Bovine Serum (FACS buffer). 2×10⁵ cells per well in 96 well-plates were incubated in 100 μL serially diluted anti-Siglec15 antibodies or controls (starting at 66.67 nM, 5-fold serial dilution) in FACS buffer for 40 minutes on ice. […] Following a 40-minute incubation at 4° C. in dark, cells were washed three times and re-suspended in FACS buffer. Fluorescence was measured using a Becton Dickinson FACS Canto II-HTS equipment. Data was analyzed using Graphpad Prism software and EC₅₀ values were reported.

EC50 [1] [nM]	EC50 [2] [nM]	EC50 [3] [nM]	Binder
0.509	0.252		A1E10G7H9 (antibody, V domains shown, Fully human antibody from transgenic mouse hybridoma) VH: QVQLQESGPGLVKPSGTLSLTCAVSGGSISSSNWWHWVRQPPGKGLEWIGEIYHSGNTNYKPSLKSRVTISVDKSKNQFSLKLSSVTAADTAVYYCARDEGNGWSNAFDIWGQGTMVTVSS VL: ENVLTQSPGTLSLSPGERVTLSCRASQSVSSSYLAWYQQKPGQAPRFLIYGASGGATGIPDRFSGSGSGTDFTLTISRLEPEDFAVYYCQQYGSSPITFGQGTRLEIK
0.652	2.93	0.877	anti-Siglec15 benchmark (ch5G12) (antibody, human IgG1, kappa, V domains shown, ch5G12 (US 20190202912A1); also called BM; Siglec15-ch5G9) VH: QVQLQQPGAELVKPGASVKMSCKASGYTFTSYWITWVIQRPGQGLEWIGDIYCGSDTMHYNEKFKNKATLTVDTSSSTAYMQLSSLTSEDSAVYYCARWWDYGSSYDYFDYWGQGTTLTVSS VL: DIKMTQSPSSMYASLGERVTITCKASQDINSYLSWFQQKPGKSPKTLIYRANRLVDGVPSRFSGSGSGQDYSLTISSLEYEDMGIYYCLQYDEFPYTFGGGTKLEIKR
0.521	0.232	1.17	A2A5C7E8 (antibody, V domains shown, Fully human antibody from transgenic mouse hybridoma; also called A2A5C7E8-1) VH: EVQLVQSGAEVKKPGESLRISCKGSGYSFTTYWISWVRQMPGKGLEWMGLIDPSDSYTNYSPSFQGHVTISTDKSISTAYLQWSSLKASDTAMYYCARGGYYGSEEDYWGQGTLVTVSS VL: EIVLTQSPGTLSLSPGERATLSCRASQSVSSSRLAWFQQKSGQAPRLLIFDASSRATGIPDRFSGSGSGTDFTLTISRLEPEDFAVYYCQQYGSSPRTFGQGTKVEFK
		1.47	A2A5C7E8-2 (antibody, human IgG1, kappa, V domains shown, Variant of A2A5C7E8 modified in VH CDR2 (X1 = E)) VH: EVQLVQSGAEVKKPGESLRISCKGSGYSFTTYWISWVRQMPGKGLEWMGLIDPSESYTNYSPSFQGHVTISTDKSISTAYLQWSSLKASDTAMYYCARGGYYGSEEDYWGQGTLVTVSS VL: EIVLTQSPGTLSLSPGERATLSCRASQSVSSSRLAWFQQKSGQAPRLLIFDASSRATGIPDRFSGSGSGTDFTLTISRLEPEDFAVYYCQQYGSSPRTFGQGTKVEFKR
		1.08	A2A5C7E8-3 (antibody, human IgG1, kappa, V domains shown, Variant of A2A5C7E8 modified in VH CDR2 (X2 = K)) VH: EVQLVQSGAEVKKPGESLRISCKGSGYSFTTYWISWVRQMPGKGLEWMGLIDPSDSYTNYSPSFKGHVTISTDKSISTAYLQWSSLKASDTAMYYCARGGYYGSEEDYWGQGTLVTVSS VL: EIVLTQSPGTLSLSPGERATLSCRASQSVSSSRLAWFQQKSGQAPRLLIFDASSRATGIPDRFSGSGSGTDFTLTISRLEPEDFAVYYCQQYGSSPRTFGQGTKVEFKR

Source: patent publication US20230106715A1 (BIOSION, published 2023)
